{"source": "patent US20210079400A1", "about": "(CZ BIOHUB SF, published 2021)", "molecular_target": "T1, BMPR2 (human, on breast cancer cells) (human, UniProt Q13873 27-1038)", "T1 construct": "whole, on cells; The PDX cells are described as human breast tumor cells; also called BMP Receptor 2", "T1 sequence (looked up)": "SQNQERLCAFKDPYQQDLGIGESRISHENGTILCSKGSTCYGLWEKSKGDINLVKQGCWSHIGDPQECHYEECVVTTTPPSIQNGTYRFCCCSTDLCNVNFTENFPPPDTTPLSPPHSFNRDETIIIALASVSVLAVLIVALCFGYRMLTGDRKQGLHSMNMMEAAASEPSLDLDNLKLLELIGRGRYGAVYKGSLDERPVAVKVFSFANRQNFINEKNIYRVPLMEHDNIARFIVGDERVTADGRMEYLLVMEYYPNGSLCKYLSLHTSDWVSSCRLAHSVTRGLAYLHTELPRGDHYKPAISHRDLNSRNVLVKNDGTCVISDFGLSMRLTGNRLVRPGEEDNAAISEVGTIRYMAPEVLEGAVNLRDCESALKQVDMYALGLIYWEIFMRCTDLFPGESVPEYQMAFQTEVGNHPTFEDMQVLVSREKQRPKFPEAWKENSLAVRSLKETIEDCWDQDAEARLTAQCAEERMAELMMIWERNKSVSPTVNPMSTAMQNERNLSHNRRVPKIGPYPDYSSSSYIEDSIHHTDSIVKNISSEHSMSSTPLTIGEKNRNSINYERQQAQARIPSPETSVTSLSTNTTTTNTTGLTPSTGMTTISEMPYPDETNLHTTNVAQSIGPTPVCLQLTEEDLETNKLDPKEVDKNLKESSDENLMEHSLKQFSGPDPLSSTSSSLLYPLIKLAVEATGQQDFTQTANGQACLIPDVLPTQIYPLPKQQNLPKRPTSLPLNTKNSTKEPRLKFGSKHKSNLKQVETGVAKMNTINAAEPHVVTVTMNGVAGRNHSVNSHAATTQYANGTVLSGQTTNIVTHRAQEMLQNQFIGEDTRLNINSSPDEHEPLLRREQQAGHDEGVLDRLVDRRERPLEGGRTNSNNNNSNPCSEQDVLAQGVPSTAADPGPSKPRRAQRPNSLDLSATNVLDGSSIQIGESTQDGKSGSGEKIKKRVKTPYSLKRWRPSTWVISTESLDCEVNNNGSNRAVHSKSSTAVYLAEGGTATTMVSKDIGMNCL", "experiment": "Proximity Ligation on sorted breast cancer PDX cells", "text": "Next, we examined the interaction of LEFTY-BMPR2 and BMP7-BMPR2 in different subpopulations of breast cancer cells. Tumor cells were isolated from 3 established breast cancer PDXs using flow cytometry. These models were characterized to follow the cancer stem cell paradigm. The cells were sorted based on EpCAM and CD49f cell surface markers. Different protein-protein interactions were quantified by Proximity Ligation and the cells were also simultaneously stained for pSMAD2 or pSMAD5. As shown in FIGS. 14A-14D, in the tumorigenic population the LEFTY-BMPR2 interaction is predominant, whereas the BMP7-BMPR2 interaction is predominant in non-tumorigenic population.", "data": [{"binder": "BMP7 (human, endogenous in breast cancer PDX cells) (ligand, UniProt P18075 293-431, looked up) STGSKQRSQNRSKTPKNQEALRMANVAENSSSDQRQACKKHELYVSFRDLGWQDWIIAPEGYAAYYCEGECAFPLNSYMNATNHAIVQTLVHFINPETVPKPCCAPTQLNAISVLYFDDSSNVILKKYRNMVVRACGCH", "values": [{"measurement": "binding result", "value": "binds"}]}]}
